To fix the notation:
B1: library; numbered along this chain (parent)
chain: MAAAGGARLLRAASAVLGGPAGRWLHHAGSRAGSSGLLRNRGPGGSAEASRSLSVSARARSSSEDKITVHFINRDGETLTTKGKVGDSLLDVVVENNLDIDGFGACEGTLACSTCHLIFEDHIYEKLDAITDEENDMLDLAYGLTDRSRLGCQICLTKSMDNMTVRVPETVADARQSIDVGKTS

The data set covers variants of B1. Kind of data set: scaled log2 fold change in cell abundance, elesclomol vs control (0 = silent mean, 1 = nonsense mean) (scaled log2 ratio); higher = higher viability under elesclomol (loss of FDX1 cuproptosis function). The note with it: glucose 10 mM. As for the experimental part:
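Deep mutational scan of full-length human FDX1: a pooled saturation-mutagenesis ORF library (every residue 2-184 mutated to all 19 amino acids plus stop, and silent codons where available) was expressed by lentivirus in FDX1-knockout ABC1 (14 days) or HEK293T (11 days) cells grown with elesclomol (ES) or DMSO control. Variant abundance came from ORF sequencing. The log2 fold change (ES vs control, mean of duplicates) was centred on the silent-variant mean (0) and scaled to the nonsense-variant mean (1). Higher values mean greater viability under ES, i.e. loss of FDX1 function in cuproptosis.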

The mark [1] stands for this setting: with ABC1 FDX1 KO, elesclomol 5 nM, 14 days.
[2] abbreviates: with HEK293T FDX1 KO, elesclomol 40 nM, 11 days.
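Also: variant abundance is its share of total variant reads in each endpoint sample, from next-generation sequencing of the integrated ORF PCR-amplified out of genomic DNA.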

With MAAAGGARLLRAASAVLGGPAGRWLHHAGSRAGSSGLLRNRGCGGSAEASRSLSVSARARSSSEDKITVHFINRDGETLTTKGKVGDSLLDVVVENNLDIDGFGACEGTLACSTCHLIFEDHIYEKLDAITDEENDMLDLAYGLTDRSRLGCQICLTKSMDNMTVRVPETVADARQSIDVGKTS, the “scaled log2 fold change” value runs as follows: under setting [1], -0.0655; under setting [2], 0.841.
For the variant MAAAGGARLLRAASAVLGGPAGRWLHHAGSRAGSSGLLRNRGAGGSAEASRSLSVSARARSSSEDKITVHFINRDGETLTTKGKVGDSLLDVVVENNLDIDGFGACEGTLACSTCHLIFEDHIYEKLDAITDEENDMLDLAYGLTDRSRLGCQICLTKSMDNMTVRVPETVADARQSIDVGKTS, the “scaled log2 fold change” value runs as follows: under setting [1], -0.0498; under setting [2], 1.29.
The corresponding values for MAAAGGARLLRAASAVLGGPAGRWLHHAGSRAGSSGLLRNRGDGGSAEASRSLSVSARARSSSEDKITVHFINRDGETLTTKGKVGDSLLDVVVENNLDIDGFGACEGTLACSTCHLIFEDHIYEKLDAITDEENDMLDLAYGLTDRSRLGCQICLTKSMDNMTVRVPETVADARQSIDVGKTS are -0.289 and -0.259.
For the variant MAAAGGARLLRAASAVLGGPAGRWLHHAGSRAGSSGLLRNRGEGGSAEASRSLSVSARARSSSEDKITVHFINRDGETLTTKGKVGDSLLDVVVENNLDIDGFGACEGTLACSTCHLIFEDHIYEKLDAITDEENDMLDLAYGLTDRSRLGCQICLTKSMDNMTVRVPETVADARQSIDVGKTS, the “scaled log2 fold change” value worked out at 0.224 under setting [1] and 0.236 under setting [2].
On to MAAAGGARLLRAASAVLGGPAGRWLHHAGSRAGSSGLLRNRWPGGSAEASRSLSVSARARSSSEDKITVHFINRDGETLTTKGKVGDSLLDVVVENNLDIDGFGACEGTLACSTCHLIFEDHIYEKLDAITDEENDMLDLAYGLTDRSRLGCQICLTKSMDNMTVRVPETVADARQSIDVGKTS, for which the “scaled log2 fold change” value under setting [1] was 0.29 and the “scaled log2 fold change” value under setting [2] was 1.
As for MAAAGGARLLRAASAVLGGPAGRWLHHAGSRAGSSGLLRNRTPGGSAEASRSLSVSARARSSSEDKITVHFINRDGETLTTKGKVGDSLLDVVVENNLDIDGFGACEGTLACSTCHLIFEDHIYEKLDAITDEENDMLDLAYGLTDRSRLGCQICLTKSMDNMTVRVPETVADARQSIDVGKTS, the “scaled log2 fold change” value under setting [1] stood at 0.268 and the “scaled log2 fold change” value under setting [2] turned out to be 0.377.
Regarding MAAAGGARLLRAASAVLGGPAGRWLHHAGSRAGSSGLLRNRVPGGSAEASRSLSVSARARSSSEDKITVHFINRDGETLTTKGKVGDSLLDVVVENNLDIDGFGACEGTLACSTCHLIFEDHIYEKLDAITDEENDMLDLAYGLTDRSRLGCQICLTKSMDNMTVRVPETVADARQSIDVGKTS, the “scaled log2 fold change” value was 0.365 under setting [1] and -0.32 under setting [2].
For MAAAGGARLLRAASAVLGGPAGRWLHHAGSRAGSSGLLRNRSPGGSAEASRSLSVSARARSSSEDKITVHFINRDGETLTTKGKVGDSLLDVVVENNLDIDGFGACEGTLACSTCHLIFEDHIYEKLDAITDEENDMLDLAYGLTDRSRLGCQICLTKSMDNMTVRVPETVADARQSIDVGKTS, the “scaled log2 fold change” value was 0.232 under setting [1] and -0.298 under setting [2].
Regarding MAAAGGARLLRAASAVLGGPAGRWLHHAGSRAGSSGLLRNRYPGGSAEASRSLSVSARARSSSEDKITVHFINRDGETLTTKGKVGDSLLDVVVENNLDIDGFGACEGTLACSTCHLIFEDHIYEKLDAITDEENDMLDLAYGLTDRSRLGCQICLTKSMDNMTVRVPETVADARQSIDVGKTS, under setting [1], the “scaled log2 fold change” value is 0.307.

Values taken from the supplement of paper PMC12855868.
